Patent US20050059087A1 (Amgen, published 2005)
No end group written: not given here.

Tests used:
[1] = biological target: T1, EGFRvIII peptide-OVA (PEP3 14-mer conjugated to ovalbumin) (human, also: conjugated to OVA, chemistry not given here); experiment: XenoMax screening
T1 construct: also called VIII-pep-OVA; muEGFr
T1 peptide: LEEKKGNYVVTDHC

[2] = biological target: T2, EGFRvIII, full length, expressed by transfected cells (NR6 M, H1477, 300.19/EGFRvIII) (human, UniProt P00533 298-1210); experiment: cell-based or functional assay
[3] = biological target: T2, EGFRvIII, full length, expressed by …; experiment: FACS on NR6 M cells, antibody at 0.25 µg/ml with SS Alexa anti-human IgG Fab, 37° C. for 1 hr, no glutathione (total cell-associated fluorescence)
Description: XenoMax derived IgG1 recombinant antibodies were expressed, purified and quantitated as described previously. Antibodies were further assayed for their ability to internalize the EGFRvIII receptor in NR6 M cells. […] The cells were washed with cold 10% FCS in PBS and secondary antibody (SS Alexa antihuman IgG Fab) at 3 μg/ml Fab was added and incubated for 7 mins on ice. The cells were washed with cold 10% FCS in PBS once and then resuspended in cold media. Next, two sets of the triplicate were incubated at 37° C. and the remaining set was incubated at 4° C. for 1 hr. After that the cells incubated at 4° C. and one set of the cells incubated at 37° C. were treated with glutathione (as previously mentioned) for 1 hr on ice. Then the cells were washed and resuspended in 100 μl of cold 1% FCS in PBS and analyzed by FACS. The % internalization was calculated from the geometric mean obtained from the FACS analysis [(mean at 37° C. with glutathione—mean at 4° C. with glutathione)/(mean at 37° C. without glutathione—mean at 4 C with glutathione)].

[4] = biological target: T3, Pep-3, NH2-LEEKKGNYVVTDHG-OH (human); experiment: Biacore 2000 SPR, mAb immobilised, pep-3 analyte, 23 C
T3 construct: Free peptide used in Biacore and KinExA (MW 1590 Da)
T3 peptide: H-LEEKKGNYVVTDHG-OH
Description: Standard EDC/NHS and carbohydrate coupling was used to covalently immobilize mAbs to a CM5 sensor chip. To minimize mass transport and crowding mAbs were immobilized at levels that gave a maximum antigen binding response (Rₘₐₓ) of no more than 50-100 RU. A reference flow cell on each chip was activated and blocked with no mAb immobilization to serve as a control.
All Biacore kinetic experiments were conducted at 23° C. […] Antigen samples were randomly injected over the biosensor surface in triplicate at 100 μL/min. Several buffer blanks were injected intermittently over the course of an experiment for double referencing. Each pep-3 concentration and blank were injected for 90 seconds. Dissociation was followed for 13 to 180 minutes.
All Biacore sensorgrams were processed using Scrubber software (Version 1.1f, BioLogic Software, Australia). Sensorgrams were first zeroed on the y-axis and then x-aligned at the beginning of the injection. Bulk refractive index changes were removed by subtracting the reference flow cell responses. The average response of all blank injections was subtracted from all analyte and blank sensorgrams to remove systematic artifacts between the experimental and reference flow cells. CLAMP biosensor data analysis software (Version 3.40, BioLogic Software, Australia) was used to determine kₐ and kd from the processed data sets. Data from all flow cells were globally fit to a 1:1 bimolecular binding model that included a mass transport term. […] The KD was calculated from the quotient kd/kₐ.

[5] = biological target: T4, wild type EGFR expressed by cells (NR6 Wt, A431, A549, H80, SF-539, A498, SKRC-52) (human, UniProt P00533 25-1210); experiment: FACS, 10 ug/ml antibody, H80, A431 and A549 cells
T4 construct: Also used here for Western blots of cell lysates; also called wtEGFR; Wt receptor

[6] = biological target: T5, EGFRvIII-rabbit Fc fusion protein (human; rabbit, UniProt P00533 298-645); experiment: ELISA, minilipofection supernatant titrated 1:2 on EGFRvIII-Rab Ig Fc fusion protein (1.5 ug/ml)
T5 construct: made in 293F cells; also called EGFRvIII-RbFc; EGFRvIII-Rab Ig Fc fusion protein; not shown: rabbit IgG Hinge-CH2-CH3 (721 bp fragment)
Description: The secretion ELISA tests were performed as follows. […] The plates were washed five times with dH₂O. Recombinant antibodies were titrated 1:2 for 7 wells from the undiluted minilipofection supernatant. The plates were washed five times with dH₂O. A goat anti-human IgG Fc-specific HRP-conjugated antibody was added at a final concentration of 1 μg/mL for 1 hour at RT for the secretion plates and binding plates detected with 1 μg/ml Rb anti Hu Fc for 1 hour at room temperature. The plates were washed five times with dH₂O. The plates were developed with the addition of TMB for 30 minutes and the ELISA was stopped by the addition of 1 M phosphoric acid. Each ELISA plate was analyzed to determine the optical density of each well at 450 nm.

[7] = biological target: T3, Pep-3, NH2-LEEKKGNYVVTDHG-OH; experiment: KinExA, pep3
Description: All KinExA experiments were conducted at room temperature (˜23° C.). For all equilibrium experiments, antigen was serially diluted into solutions having a constant mAb binding site concentration. For the first 10 titration points the dilutions were 2-fold and the 11th and 12th serial dilutions were 10-fold. The sample flow rate for all experiments was 0.25 mL/min and the labeling antibody flow rate was 0.5 mL/min. […] A sample volume of 250 μL was analyzed for the antibody-controlled experiment. Two or three replicates of each sample were measured for all equilibrium experiments. The equilibrium titration data were fit in a dual curve analysis to a 1:1 binding model using KinExA software (Version 2.4, Sapidyne Instruments).

[8] = biological target: T4, wild type EGFR expressed by cells (NR6 …); experiment: FACS on H80 glioblastoma cells (wild type EGFR only), 30 min on ice, PE goat anti-human IgG; filled histogram = irrelevant IgG
Description: The specificity of the purified antibodies was ascertained by performing FACS analysis on a panel of cell lines. H80, a human glioblastoma line, and H1477 (H80-EGFRvIII) that expresses high levels of EGFRvIII, A431, a human epidemoid carcinoma line, and A549, a human lung carcinoma cell line were used as the cell lines. All cell lines were from Dr. Bigner except A431 and A549, which were from ATCC (Rockville, Md., U.S.A.). Cells were incubated on ice with 10 μg/ml of the respective antibody for 30 min., washed in FACS buffer and subsequently incubated with PE-conjugated goat anti-human IgG from Jackson ImmunoResearch (West Grove, Pa., U.S.A.).

[9] = biological target: T3, Pep-3, NH2-LEEKKGNYVVTDHG-OH; experiment: Biacore 2000 SPR, mAb immobilised, pep-3 analyte; 95% confidence interval in parentheses
Description: (§1) Two CM5 sensor chips were used in total to immobilize both mAbs. […] Biacore 2000 optical biosensors were used for all studies.
(§2) Next, pep-3 was flowed across the mAb immobilized biosensor surfaces. […] Blank injections were run every sixth sample throughout the injection series for double referencing purposes.

[10] = biological target: T3, Pep-3, NH2-LEEKKGNYVVTDHG-OH; experiment: as above
Description: as §1, §2

[11] = biological target: T3, Pep-3, NH2-LEEKKGNYVVTDHG-OH; experiment: Biacore SPR, mAb immobilised, Pep-3 analyte (single experiment of Example 25)
[12] = biological target: T3, Pep-3, NH2-LEEKKGNYVVTDHG-OH; experiment: KinExA, pep3; KinExA (solution equilibrium), pep3; not Biacore
[13] = biological target: EGFrVIII antigen (ELISA antigen of Examples 15, 17 and 21; form not stated) (human, UniProt P00533 298-645, limits assumed); experiment: ELISA, 293 cell supernatant on EGFrVIII antigen
Description: Each mutated chain was then transfected with the complementary wild-type chain in 293 cells. Supernatants were then tested for expression and secretion of human IgG antibodies, and for binding to EGFrVIII antigen.

[14] = biological target: T3, Pep-3, NH2-LEEKKGNYVVTDHG-OH; experiment: Biacore 2000 SPR, mAb immobilised, pep-3 analyte (range between runs)
Description: as §1, §2

B1: AB-EGFRvIII-XG1-095 (antibody, V domains shown)
VH: QVQLQESGPFLVKPSQTLSLTCTVSGGSISSGGYYWSWIRQHPGKGLEWIGFIYYRGNTYYNPSLKSRVTISVDTSKNQFSLKLSSVTAADTAVYYCARDGYCSRTGCYGGWFDPWGQGTLVTVSP
VL: DIVMTQTPLSSPVTLGQPASISCRSSQSLIHTDGNIYLSWLQQRPGQPPRLLIYKISNRFSGVPDRFSGSGAGTDFTLKISRVEAEDVGVYYCMQGTQFPITFGQGTRLEIK
notes: also called SC95; sc95
B1 was tested, and the binding result [1] was “binds”, the “% internalization” value [2] was 72.4% and the “FACS Geometric mean, With glutathione 4° C.” value [2] was 5.13 geometric mean. For the same binder, the “FACS Geometric mean, With glutathione 37° C.” value [2] was 17.8 geometric mean, the “FACS Geometric mean (without glutathione, 37° C.)” value [3] was 22.6 geometric mean and the Kd [4] was 66 nM. For the same binder, the koff [4] was 0.0099 s⁻¹ and the kon [4] was 149000 M⁻¹ s⁻¹.

B2: SC-EGFRvIII-XG1-139 (antibody, V domains shown)
VH: EVQVLESGGGLVQPGGSLRLSCAASGFTFSSYAMSWVRQAPGKGLEWVSAISGSGGSTNYADSVKGRFTISRDNSKNTLYLQMNSLRAEDTAVYYCAGSSGWSEYWGQGTLVTVSS
VL: DIQMTQSPSSLSASVGDRVTITCRASQGIRNNLAWYQQKPGKAPKRLIYAASNLQSGVPSRFTGSGSGTEFTLIVSSLQPEDFATYYCLQHHSYPLTSGGGTKVEIK
notes: also called SC139; sc139
For B2, the binding result [1] was “binds”, the “% internalization” value [2] was 80.8% and the “FACS Geometric mean, With glutathione 4° C.” value [2] was 4.88 geometric mean. For the same binder, the “FACS Geometric mean, With glutathione 37° C.” value [2] was 19.2 geometric mean, the “staining relative to ABX-EGF (E7.6.3)” value [5] was 10% and the “FACS Geometric mean (without glutathione, 37° C.)” value [3] was 22.6 geometric mean. It also gave a Kd [4] of 290 nM, a koff [4] of 0.00298 s⁻¹ and a kon [4] of 10300 M⁻¹ s⁻¹. For the same binder, the “Titer, antigen binding” value [6] was > 64 reciprocal dilution.

B3: SC-EGFRvIII-XG1-131 (antibody, V domains shown)
VH: QVQLVESGGGVVQSGRSLRLSCAASGFTFRNYGMHWVRQAPGKGLEWVAVIWYDGSDKYYADSVRGRFTISRDNSKNTLYLQMNSLRAEDTAVYYCARDGYDILTGNPRDFDYWGQGTLVTVSS
VL: DTVMTQTPLSSHVTLGQPASISCRSSQSLVHSDGNTYLSWLQQRPGQPPRLLIYRISRRFSGVPDRFSGSGAGTDFTLEISRVEAEDVGVYYCMQSTHVPWTFGQGTKVEIK
notes: also called SC131; sc131
With B3 the binding result [1] was “binds” and the Kd [7] was 0.05 pM.

B4: AB-EGFRvIII-XG1K-13.1.2 (antibody, V domains shown)
VH: QVQLVESGGGVVQPGRSLRLSCAASGFTFSSYGMHWVRQAPGKGLEWVAVIWYDGSNKYYVDSVKGRFTISRDNSKNTLYLQMNSLRAEDTAVYYCARDGWQQLAPFDYWGQGTLVTVSS
VL: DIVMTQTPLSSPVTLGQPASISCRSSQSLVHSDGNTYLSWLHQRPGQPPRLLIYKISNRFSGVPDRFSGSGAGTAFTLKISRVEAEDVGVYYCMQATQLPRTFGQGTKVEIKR
For B4, the binding result [8] was “no binding (tested: 10 µg/ml)”, the Kd [9] was 75 nM and the koff [9] was 0.016 s⁻¹. For the same binder, the kon [9] was 210000 M⁻¹ s⁻¹, the Kd [10] was 75 nM and the koff [10] was 0.016 s⁻¹. For the same binder, the kon [10] was 210000 M⁻¹ s⁻¹, the Kd [11] was 67 nM and the “% internalization” value [2] was 82.5%. For the same binder, the “FACS Geometric mean, With glutathione 4° C.” value [2] was 5.38 geometric mean, the “FACS Geometric mean, With glutathione 37° C.” value [2] was 19.2 geometric mean and the “FACS Geometric mean (without glutathione, 37° C.)” value [3] was 22.1 geometric mean. For the same binder, the Kd [12] was 0.025 nM.

B5: 13.1.2 variant Arg101Asp (antibody, V domains shown)
VH: QVQLVESGGGVVQPGRSLRLSCAASGFTFSSYGMHWVRQAPGKGLEWVAVIWYDGSNKYYVDSVKGRFTISRDNSKNTLYLQMNSLRAEDTAVYYCARDGWQQLAPFDYWGQGTLVTVSS
VL: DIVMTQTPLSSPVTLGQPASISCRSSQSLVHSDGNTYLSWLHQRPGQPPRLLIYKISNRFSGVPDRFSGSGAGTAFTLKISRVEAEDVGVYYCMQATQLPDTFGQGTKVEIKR
notes: Mutated chain co-transfected with the complementary wild-type chain in 293 cells; supernatant tested
B5: no binding [13].

B6: 13.1.2 variant L99T-5.3 (antibody, V domains shown)
VH: QVQLVESGGGVVQPGRSLRLSCAASGFTFSSYGMHWVRQAPGKGLEWVAVIWYDGSNKYYVDSVKGRFTISRDNSKNTLYLQMNSLRAEDTAVYYCARDGWQQLAPFDYWGQGTLVTVSS
VL: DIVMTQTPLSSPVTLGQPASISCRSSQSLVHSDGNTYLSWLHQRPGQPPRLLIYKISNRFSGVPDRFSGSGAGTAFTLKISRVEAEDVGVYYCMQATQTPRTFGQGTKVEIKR
notes: also called Leu99Thr; 99Thr
With B6 the Kd [9] was 60 nM, the koff [9] was 0.013 s⁻¹ and the kon [9] was 216000 M⁻¹ s⁻¹. For the same binder, the Kd [14] was 54 to 70 nM.

B7: 13.1.2 variant Arg101Glu (antibody, V domains shown)
VH: QVQLVESGGGVVQPGRSLRLSCAASGFTFSSYGMHWVRQAPGKGLEWVAVIWYDGSNKYYVDSVKGRFTISRDNSKNTLYLQMNSLRAEDTAVYYCARDGWQQLAPFDYWGQGTLVTVSS
VL: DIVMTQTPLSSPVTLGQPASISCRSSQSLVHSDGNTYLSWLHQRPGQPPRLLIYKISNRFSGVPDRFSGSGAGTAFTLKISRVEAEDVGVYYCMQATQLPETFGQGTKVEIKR
notes: as for B5
B7: no binding [13].

B8: 13.1.2 variant Arg101Gln (antibody, V domains shown)
VH: QVQLVESGGGVVQPGRSLRLSCAASGFTFSSYGMHWVRQAPGKGLEWVAVIWYDGSNKYYVDSVKGRFTISRDNSKNTLYLQMNSLRAEDTAVYYCARDGWQQLAPFDYWGQGTLVTVSS
VL: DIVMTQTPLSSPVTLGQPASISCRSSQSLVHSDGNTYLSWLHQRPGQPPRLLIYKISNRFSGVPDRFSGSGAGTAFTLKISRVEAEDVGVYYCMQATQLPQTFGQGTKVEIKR
notes: as for B5
B8: no binding [13].
